Patent US20250313621A1 (NXERA PHARMA UK, published 2025)

How the values were obtained:
[1] = target: T1, PAR2-3: P157: 1-377, glycosylated, pBacMamHisStrepII, full length (human, UniProt P55085 26-377); assay: SPR (table head: Octet); IgG captured via Fc, detergent solubilised FL-N PAR2 StaR as analyte
T1 construct: detergent-solubilised analyte in SPR, or on infected cells in flow cytometry; also called FL-N PAR2 StaR; FL-N StaR; not shown: C-terminal StrepII and deca-histidine tags
T1 sequence: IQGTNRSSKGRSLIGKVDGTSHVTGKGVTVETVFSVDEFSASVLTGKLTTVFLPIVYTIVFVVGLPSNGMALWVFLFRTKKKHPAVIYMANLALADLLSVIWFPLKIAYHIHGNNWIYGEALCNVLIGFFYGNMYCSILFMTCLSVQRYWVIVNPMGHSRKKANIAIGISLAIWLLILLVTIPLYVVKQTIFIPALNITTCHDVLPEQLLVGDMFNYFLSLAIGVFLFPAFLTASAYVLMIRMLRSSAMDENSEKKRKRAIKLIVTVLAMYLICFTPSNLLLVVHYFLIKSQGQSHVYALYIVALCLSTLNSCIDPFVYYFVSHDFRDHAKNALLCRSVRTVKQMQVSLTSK
Method: (§1) For all eleven IgG1f_AEASS, affinities to human PAR2 were determined by SPR. The IgGs were captured via their Fc-fragment and detergent (LMNG/CHS) solubilised FL-N PAR2 StaR was used as analyte in solution. 50 mM HEPES pH 7.5, 150 mM NaCl, 0.02% LMNG was used as assay buffer. To minimize artefacts introduced by non-specific interaction of FL-N PAR2 StaR with the sensors, the CM3 sensors were used as basis to immobilize a high density of anti-hu-Fc capture antibody (BR-1008-39, GE Healthcare). IgGs were captured with relatively high levels of approximately 500 RU to achieve a higher ratio of specific to non-specific binding (while still maintaining conditions suitable for kinetic characterization). Affinities ranged from 6.5 nM to 130 pM. The koff values of the best candidates were at the lower assay limit. A minimum koff of 2.00E-05 s⁻¹ was reported (corresponding to 3% dissociation in 1500 s).

[2] = target: Cynomolgus PAR2 on BacMam-infected HEK293 cells (cynomolgus); assay: cell-based or functional assay
Rhesus PAR2 on cells = Rhesus PAR2 on cells (rhesus (Macaca mulatta)); assay: cell-based or functional assay
[3] = target: T2, Wildtype human PAR2 expressed on cells (human, UniProt P55085 37-397); assay: cell-based or functional assay
T2 sequence: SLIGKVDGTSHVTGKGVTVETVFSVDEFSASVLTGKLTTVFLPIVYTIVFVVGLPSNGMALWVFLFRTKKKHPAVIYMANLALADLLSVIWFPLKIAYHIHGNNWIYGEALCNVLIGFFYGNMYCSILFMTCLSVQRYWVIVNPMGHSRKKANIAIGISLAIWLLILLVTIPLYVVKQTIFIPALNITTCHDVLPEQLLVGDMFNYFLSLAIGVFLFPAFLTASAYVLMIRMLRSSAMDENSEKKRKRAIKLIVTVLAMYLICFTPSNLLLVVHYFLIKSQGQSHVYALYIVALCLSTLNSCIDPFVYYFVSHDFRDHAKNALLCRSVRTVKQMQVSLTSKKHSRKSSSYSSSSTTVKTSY

[4] = target: T3, Soluble PAR2 StaR (recombinant human PAR2 StaR protein in detergent, construct not stated) (human, UniProt P55085 37-377, limits assumed); assay: SPR Biacore; soluble PAR2 StaR
T3 construct: also called purified PAR2
T3 sequence: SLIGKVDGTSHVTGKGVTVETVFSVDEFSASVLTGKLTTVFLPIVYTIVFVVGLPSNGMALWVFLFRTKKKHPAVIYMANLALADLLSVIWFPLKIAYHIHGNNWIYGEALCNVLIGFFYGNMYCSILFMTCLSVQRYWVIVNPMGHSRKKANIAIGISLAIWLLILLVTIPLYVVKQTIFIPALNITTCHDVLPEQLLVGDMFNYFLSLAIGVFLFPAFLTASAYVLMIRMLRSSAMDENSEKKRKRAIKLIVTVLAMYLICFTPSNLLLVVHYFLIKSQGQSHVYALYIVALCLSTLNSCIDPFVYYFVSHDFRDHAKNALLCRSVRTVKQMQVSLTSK

[5] = target: T1, PAR2-3: P157: 1-377, glycosylated, …; assay: SPR (table head: Octet); IgG captured via Fc, FL-N PAR2 StaR as analyte; koff at the lower assay limit
Method: as §1

[6] = target: T3, Soluble PAR2 StaR (recombinant human …); assay: SPR Biacore T200; IgG captured, PAR2 as analyte; 37 C, 30 min dissociation
Method: The assay of PAR2 interaction with anti-PAR2 antibodies was carried out using a Biacore T200 instrument (GE Healthcare). Anti-human IgG antibody (Human Antibody Capture Kit, GE Healthcare) was immobilised by amine coupling in the target and reference flow cells of sensor chip CM3 (GE Healthcare) to a surface density of 2700 to 3000 resonance units (RU). Immobilisation was carried out at 25° C. in HBS-EP+buffer (GE Healthcare). The buffer was then changed to 50 mM HEPES, pH 7.5, 150 mM NaCl, 0.02% LMNG, 0.002% CHS for the PAR2-antibody interaction assay which was carried out at either 25 or 37° C. Each cycle of the assay began with antibody capture in the target flow cell to a level of 400 to 450 RU. PAR2 was then injected over target and reference flow cells at three concentrations, 5 min each, followed by 30-min dissociation. The surface was then regenerated with a solution provided in the kit (Human Antibody Capture Kit, GE Healthcare). With every antibody tested the first cycle was a blank (three injections of the running buffer) and the second a series of 50, 100, and 200 nM PAR2 injections.

B1: Y022870 (antibody, human IgG1, lambda, V domains shown)
VH: EVQLLESGGGLVQPGGSLRLSCAASGFSFSRYAITWVRQAPGKGLEWVSTISALGLETYYAESVRGRFTISRDNSKNTLYLQMNSLRAEDTAVYYCARGFHYTHSGKRYYYPFDIWGQGTLVTVSS
VL: QSALTQPASVSGSPGQSITISCTGTSSDVGSYNLVSWYQQHPGKAPKLMIYEGSKRPSGVSNRFSGSKSGNTASLTISGLQAEDEADYYCSQYATFIAFAVFGGGTKLTVLG
notes: also called Y22870
kon [1]: 96000 M⁻¹ s⁻¹ | IC50 (nM), SLIGKV agonist challenge, Cyno [2]: 88 nM | IC50 (nM), SLIGKV agonist challenge, Rhesus (Rhesus PAR2 on cells): 50 nM | IC50 (nM), SLIGKV agonist challenge, Human [3]: 61 nM | Kd [4]: 0.21 nM | koff [4]: 7e-06 s⁻¹ | kon [4]: 34000 M⁻¹ s⁻¹ | Kd [5]: ≤ 0.21 nM | Kd [6]: 0.45 nM | koff [6]: 1.9e-05 s⁻¹ | kon [6]: 41000 M⁻¹ s⁻¹ | t½ [6]: 10.3 h

B2: Y022877 (antibody, human IgG1, lambda, V domains shown)
VH: EVQLLESGGGLVQPGGSLRLSCAASGFTFSRYAMTWVRQAPGKGLEWVSTISGLGQEAYYAGSVKGRFTISRDNSKNTLYLQMNSLRAEDTAVYYCARGFHYTHSGKRYYYPFDIWGQGTLVTVSS
VL: QSALTQPASVSGSPGQSITISCTGTSSDVGSYNLVSWYQQHPGKAPKLMIYEGSKRPSGVSNRFSGSKSGNTASLTISGLQAEDEADYYCSQYATFIAFAVFGGGTKLTVLG
notes: also called Y22877
kon [1]: 68000 M⁻¹ s⁻¹ | IC50 (nM), SLIGKV agonist challenge, Cyno [2]: 74 nM | IC50 (nM), SLIGKV agonist challenge, Rhesus (Rhesus PAR2 on cells): 47 nM | IC50 (nM), SLIGKV agonist challenge, Human [3]: 52 nM | Kd [4]: 0.3 nM | koff [4]: 8e-06 s⁻¹ | kon [4]: 27000 M⁻¹ s⁻¹ | Kd [5]: 0.29 nM | Kd [6]: 0.55 nM | koff [6]: 1.7e-05 s⁻¹ | kon [6]: 31000 M⁻¹ s⁻¹ | t½ [6]: 11.5 h

B3: Y022883 (antibody, human IgG1, lambda, V domains shown)
VH: EVQLLESGGGLVQPGGSLRLSCAASGFSFTRYAISWVRQAPGKGLEWVSVISGHGSEANYAESVKGRFTISRDNSKNTLYLQMNSLRAEDTAVYYCARGFHYTHSGKRYYYPFDIWGQGTLVTVSS
VL: QSALTQPASVSGSPGQSITISCTGTSSDVGSYNLVSWYQQHPGKAPKLMIYEGSKRPSGVSNRFSGSKSGNTASLTISGLQAEDEADYYCSQYATFIAFAVFGGGTKLTVLG
notes: also called Y22883; Y02283
kon [1]: 140000 M⁻¹ s⁻¹ | IC50 (nM), SLIGKV agonist challenge, Cyno [2]: 68 nM | IC50 (nM), SLIGKV agonist challenge, Rhesus (Rhesus PAR2 on cells): 43 nM | IC50 (nM), SLIGKV agonist challenge, Human [3]: 54 nM | Kd [4]: 0.4 nM | koff [4]: 1.2e-05 s⁻¹ | kon [4]: 30000 M⁻¹ s⁻¹ | Kd [5]: 0.14 nM | Kd [6]: 0.65 nM | koff [6]: 2.3e-05 s⁻¹ | kon [6]: 36000 M⁻¹ s⁻¹ | t½ [6]: 8.3 h
